Results on 1 molecule are retold here after publication PMC9507969, “Visualizing maturation factor extraction from the nascent ribosome by the AAA-ATPase Drg1” (Nature Structural & Molecular Biology, 2022).

Substitutions are numbered along the chain they refer to.

Assay [1] addresses T1, Drg1EQ1 (E346Q), D1 Walker B variant, purified (S. cerevisiae, UniProt P32794 1-780, E346Q).
T1 construct: Drg1 (AFG2) of S. cerevisiae with the D1 Walker B exchange E346Q; source: overexpressed in yeast as GST fusion, purified on GSH-agarose, eluted by Prescission protease cleavage
T1 sequence: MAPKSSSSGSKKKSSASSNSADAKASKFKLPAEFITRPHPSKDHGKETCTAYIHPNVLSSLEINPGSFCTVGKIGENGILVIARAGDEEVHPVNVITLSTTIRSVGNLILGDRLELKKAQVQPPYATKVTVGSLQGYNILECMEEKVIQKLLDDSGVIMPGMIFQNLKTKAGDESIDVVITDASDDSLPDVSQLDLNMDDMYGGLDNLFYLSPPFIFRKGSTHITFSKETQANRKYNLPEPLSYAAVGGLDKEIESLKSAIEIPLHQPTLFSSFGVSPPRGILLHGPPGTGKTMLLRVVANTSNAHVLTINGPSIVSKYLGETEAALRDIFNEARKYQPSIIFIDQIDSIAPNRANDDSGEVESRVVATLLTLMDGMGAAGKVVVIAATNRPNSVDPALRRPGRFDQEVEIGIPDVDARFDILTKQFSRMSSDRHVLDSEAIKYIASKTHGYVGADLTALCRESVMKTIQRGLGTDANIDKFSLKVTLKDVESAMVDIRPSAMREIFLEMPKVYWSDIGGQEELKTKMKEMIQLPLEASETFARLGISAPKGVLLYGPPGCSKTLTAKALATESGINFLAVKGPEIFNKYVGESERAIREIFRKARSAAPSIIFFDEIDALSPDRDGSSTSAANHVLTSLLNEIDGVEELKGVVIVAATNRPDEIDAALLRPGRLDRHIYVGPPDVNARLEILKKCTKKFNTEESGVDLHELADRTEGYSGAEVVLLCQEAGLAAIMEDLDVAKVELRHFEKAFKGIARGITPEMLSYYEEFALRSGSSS
Description: pull-down; GST-tagged bait on GSH-agarose beads; 80 µg Drg1 in 120 µl binding buffer (20 mM HEPES-KOH, 150 mM potassium acetate, 5 mM magnesium acetate, 0.1% Tween-20, 1 mM DTT, pH 6.8); 1 mM ATP or ATPγS or no nucleotide; 60 minutes, room temperature. The settings on record: both partners purified.

Assay [2] deals with T2, Drg1 (diazaborine resistance gene 1), wild type, purified (S. cerevisiae, UniProt P32794 1-780).
T2 construct: Drg1 (AFG2), hexameric type-II AAA-ATPase of S. cerevisiae, wild type; Hexamer in the cryo-EM maps; also called DRG1 (AFG2); AAA-ATPase Drg1; source: overexpressed in yeast as GST fusion (CuSO4-induced), purified on GSH-agarose, eluted by Prescission protease cleavage
T2 sequence: T1 sequence with Q346E
The assay is described as above. The settings on record: both partners purified.

B1: GST-Arx1 (natural protein, S. cerevisiae)
chain: MALAISHEDTQILLKDKNILQESVLNKYRTAGQIAQTALKYVTSLINDSYHSKTTQRQLTVPELCLLTDSFILTRLEQYYKNKVNERGIAIPTTIDIDQISGGWCPEIDDTQNLLNWNKGKDSTFASSVTGTLRPGDLVKITLGVHIDGYTSEVSHTMVIYPVDETKPILQPTGPLLGGKADAVAAAHIAMETVVALLACALTPEKLPASLGGTSSGITGQLIRTIVDTIARSYNCGVVPGSRVRRIRRFLAGQNEGIVAEREYKGVVWTESHQEADLLSNTDAKDLTVVDRGQSTPFTNVSAIPSDDFVVQSGEVYLIDLKMASLEHCTKKGLVTLETVDSYTGKSHKAGELIARPGAYVRDFAQTHILKLKTSRQLLTKIDKQGVYPFKLSHLSSNFPFVHENEEELQSLKKDLKSFRLGMSEISNNYLCVESPIQIARWVPWDHILKATNPNGNLSYDATSTLTLPGHELPLPKLGVSAIKLKSLMNSTKESISLPVARECNTIVLCDSSVSTTDRPELLRLTGGSKTCQPSWIHSQHELNPQDSIVQGIFQLATLAKDKRFGLLLKETQPMKQKSVETSNGGVEETMKM
notes: Arx1 of S. cerevisiae; not shown: GST, N-terminal, kept
Turning to B1, the binding result in assay [1] and in assay [2] was “binds” throughout.
